Article PMC10540216, “Activity Guided Azide-methyllysine Photo-trapping for Substrate Profiling of Lysine Demethylases” (Journal of the American Chemical Society, 2023)

B1: DDX3X_HUMAN (protein, UniProt O00571 2-662, looked up)
ATP-dependent RNA helicase …: SHVAVENALGLDQQFAGLDLNSSDNQSGGSTASKGRYIPPHLRNREATKGFYDKDSSGWSSSKDKDAYSSFGSRSDSRGKSSFFSDRGSGSRGRFDDRGRSDYDGIGSRGDRSGFGKFERGGNSRWCDKSDEDDWSKPLPPSERLEQELFSGGNTGINFEKYDDIPVEATGNNCPPHIESFSDVEMGEIIMGNIELTRYTRPTPVQKHAIPIIKEKRDLMACAQTGSGKTAAFLLPILSQIYSDGPGEALRAMKENGRYGRRKQYPISLVLAPTRELAVQIYEEARKFSYRSRVRPCVVYGGADIGQQIRDLERGCHLLVATPGRLVDMMERGKIGLDFCKYLVLDEADRMLDMGFEPQIRRIVEQDTMPPKGVRHTMMFSATFPKEIQMLARDFLDEYIFLAVGRVGSTSENITQKVVWVEESDKRSFLLDLLNATGKDSLTLVFVETKKGADSLEDFLYHEGYACTSIHGDRSQRDREEALHQFRSGKSPILVATAVAARGLDISNVKHVINFDLPSDIEEYVHRIGRTGRVGNLGLATSFFNERNINITKDLLDLLVEAKQEVPSWLENMAYEHHYKGSSRGRSKSSRFSGGFGARDYRQSSGASSSSFSSSRASSSRSGGGGHGSSRGFGGGGYGGFYNSDGYGGNYNSQGVDWWGN
B2: ACON_HUMAN (protein, UniProt Q99798 28-780, looked up)
Aconitate hydratase, …: QRAKVAMSHFEPNEYIHYDLLEKNINIVRKRLNRPLTLSEKIVYGHLDDPASQEIERGKSYLRLRPDRVAMQDATAQMAMLQFISSGLSKVAVPSTIHCDHLIEAQVGGEKDLRRAKDINQEVYNFLATAGAKYGVGFWKPGSGIIHQIILENYAYPGVLLIGTDSHTPNGGGLGGICIGVGGADAVDVMAGIPWELKCPKVIGVKLTGSLSGWSSPKDVILKVAGILTVKGGTGAIVEYHGPGVDSISCTGMATICNMGAEIGATTSVFPYNHRMKKYLSKTGREDIANLADEFKDHLVPDPGCHYDQLIEINLSELKPHINGPFTPDLAHPVAEVGKVAEKEGWPLDIRVGLIGSCTNSSYEDMGRSAAVAKQALAHGLKCKSQFTITPGSEQIRATIERDGYAQILRDLGGIVLANACGPCIGQWDRKDIKKGEKNTIVTSYNRNFTGRNDANPETHAFVTSPEIVTALAIAGTLKFNPETDYLTGTDGKKFRLEAPDADELPKGEFDPGQDTYQHPPKDSSGQHVDVSPTSQRLQLLEPFDKWDGKDLEDLQILIKVKGKCTTDHISAAGPWLKFRGHLDNISNNLLIGAINIENGKANSVRNAVTQEFGPVPDTARYYKKHGIRWVVIGDENYGEGSSREHAALEPRHLGGRAIITKSFARIHETNLKKQGLLPLTFADPADYNKIHPVDKLTIQGLKDFTPGKPLKCIIKHPNGTQETILLNHTFNETQIEWFRAGSALNRMKELQQ
B3: SYDM_HUMAN (protein, UniProt Q6PI48 48-645, looked up)
Aspartate--tRNA ligase, …: VVRTNTCGELRSSHLGQEVTLCGWIQYRRQNTFLVLRDFDGLVQVIIPQDESAASVKKILCEAPVESVVQVSGTVISRPAGQENPKMPTGEIEIKVKTAELLNACKKLPFEIKNFVKKTEALRLQYRYLDLRSFQMQYNLRLRSQMVMKMREYLCNLHGFVDIETPTLFKRTPGGAKEFLVPSREPGKFYSLPQSPQQFKQLLMVGGLDRYFQVARCYRDEGSRPDRQPEFTQIDIEMSFVDQTGIQSLIEGLLQYSWPNDKDPVVVPFPTMTFAEVLATYGTDKPDTRFGMKIIDISDVFRNTEIGFLQDALSKPHGTVKAICIPEGAKYLKRKDIESIRNFAADHFNQEILPVFLNANRNWNSPVANFIMESQRLELIRLMETQEEDVVLLTAGEHNKACSLLGKLRLECADLLETRGVVLRDPTLFSFLWVVDFPLFLPKEENPRELESAHHPFTAPHPSDIHLLYTEPKKARSQHYDLVLNGNEIGGGSIRIHNAELQRYILATLLKEDVKMLSHLLQALDYGAPPHGGIALGLDRLICLVTGSPSIRDVIAFPKSFRGHDLMSNTPDSVPPEELKPYHIRVSKPTDSKAERAH
B4: SND1_HUMAN (protein, UniProt Q7KZF4 2-910, looked up)
Staphylococcal nuclease …: ASSAQSGGSSGGPAVPTVQRGIIKMVLSGCAIIVRGQPRGGPPPERQINLSNIRAGNLARRAAATQPDAKDTPDEPWAFPAREFLRKKLIGKEVCFTIENKTPQGREYGMIYLGKDTNGENIAESLVAEGLATRREGMRANNPEQNRLSECEEQAKAAKKGMWSEGNGSHTIRDLKYTIENPRHFVDSHHQKPVNAIIEHVRDGSVVRALLLPDYYLVTVMLSGIKCPTFRREADGSETPEPFAAEAKFFTESRLLQRDVQIILESCHNQNILGTILHPNGNITELLLKEGFARCVDWSIAVYTRGAEKLRAAERFAKERRLRIWRDYVAPTANLDQKDKQFVAKVMQVLNADAIVVKLNSGDYKTIHLSSIRPPRLEGENTQDKNKKLRPLYDIPYMFEAREFLRKKLIGKKVNVTVDYIRPASPATETVPAFSERTCATVTIGGINIAEALVSKGLATVIRYRQDDDQRSSHYDELLAAEARAIKNGKGLHSKKEVPIHRVADISGDTQKAKQFLPFLQRAGRSEAVVEYVFSGSRLKLYLPKETCLITFLLAGIECPRGARNLPGLVQEGEPFSEEATLFTKELVLQREVEVEVESMDKAGNFIGWLHIDGANLSVLLVEHALSKVHFTAERSSYYKSLLSAEEAAKQKKEKVWAHYEEQPVEEVMPVLEEKERSASYKPVFVTEITDDLHFYVQDVETGTQLEKLMENMRNDIASHPPVEGSYAPRRGEFCIAKFVDGEWYRARVEKVESPAKIHVFYIDYGNREVLPSTRLGTLSPAFSTRVLPAQATEYAFAFIQVPQDDDARTDAVDSVVRDIQNTQCLLNVEHLSAGCPHVTLQFADSKGDVGLGLVKEGLVMVEVRKEKQFQKVITEYLNAQESAKSARLNLWRYGDFRADDADEFGYSR
B5: PNPT1_HUMAN (protein, UniProt Q8TCS8 46-783, looked up)
Polyribonucleotide …: AVAVDLGNRKLEISSGKLARFADGSAVVQSGDTAVMVTAVSKTKPSPSQFMPLVVDYRQKAAAAGRIPTNYLRREIGTSDKEILTSRIIDRSIRPLFPAGYFYDTQVLCNLLAVDGVNEPDVLAINGASVALSLSDIPWNGPVGAVRIGIIDGEYVVNPTRKEMSSSTLNLVVAGAPKSQIVMLEASAENILQQDFCHAIKVGVKYTQQIIQGIQQLVKETGVTKRTPQKLFTPSPEIVKYTHKLAMERLYAVFTDYEHDKVSRDEAVNKIRLDTEEQLKEKFPEADPYEIIESFNVVAKEVFRSIVLNEYKRCDGRDLTSLRNVSCEVDMFKTLHGSALFQRGQTQVLCTVTFDSLESGIKSDQVITAINGIKDKNFMLHYEFPPYATNEIGKVTGLNRRELGHGALAEKALYPVIPRDFPFTIRVTSEVLESNGSSSMASACGGSLALMDSGVPISSAVAGVAIGLVTKTDPEKGEIEDYRLLTDILGIEDYNGDMDFKIAGTNKGITALQADIKLPGIPIKIVMEAIQQASVAKKEILQIMNKTISKPRASRKENGPVVETVQVPLSKRAKFVGPGGYNLKKLQAETGVTISQVDEETFSVFAPTPSAMHEARDFITEICKDDQEQQLEFGAVYTATITEIRDTGVMVKLYPNMTAVLLHNTQLDQRKIKHPTALGLEVGQEIQVKYFGRDPADGRMRLSRKVLQSPATTVVRTLNDRSSIVMGEPISQSSSNSQ
B6: HXK1_HUMAN (protein, UniProt P19367 1-917, looked up)
Hexokinase-1: MIAAQLLAYYFTELKDDQVKKIDKYLYAMRLSDETLIDIMTRFRKEMKNGLSRDFNPTATVKMLPTFVRSIPDGSEKGDFIALDLGGSSFRILRVQVNHEKNQNVHMESEVYDTPENIVHGSGSQLFDHVAECLGDFMEKRKIKDKKLPVGFTFSFPCQQSKIDEAILITWTKRFKASGVEGADVVKLLNKAIKKRGDYDANIVAVVNDTVGTMMTCGYDDQHCEVGLIIGTGTNACYMEELRHIDLVEGDEGRMCINTEWGAFGDDGSLEDIRTEFDREIDRGSLNPGKQLFEKMVSGMYLGELVRLILVKMAKEGLLFEGRITPELLTRGKFNTSDVSAIEKNKEGLHNAKEILTRLGVEPSDDDCVSVQHVCTIVSFRSANLVAATLGAILNRLRDNKGTPRLRTTVGVDGSLYKTHPQYSRRFHKTLRRLVPDSDVRFLLSESGSGKGAAMVTAVAYRLAEQHRQIEETLAHFHLTKDMLLEVKKRMRAEMELGLRKQTHNNAVVKMLPSFVRRTPDGTENGDFLALDLGGTNFRVLLVKIRSGKKRTVEMHNKIYAIPIEIMQGTGEELFDHIVSCISDFLDYMGIKGPRMPLGFTFSFPCQQTSLDAGILITWTKGFKATDCVGHDVVTLLRDAIKRREEFDLDVVAVVNDTVGTMMTCAYEEPTCEVGLIVGTGSNACYMEEMKNVEMVEGDQGQMCINMEWGAFGDNGCLDDIRTHYDRLVDEYSLNAGKQRYEKMISGMYLGEIVRNILIDFTKKGFLFRGQISETLKTRGIFETKFLSQIESDRLALLQVRAILQQLGLNSTCDDSILVKTVCGVVSRRAAQLCGAGMAAVVDKIRENRGLDRLNVTVGVDGTLYKLHPHFSRIMHQTVKELSPKCNVSFLLSEDGSGKGAALITAVGVRLRTEASS
B7: TOP1_HUMAN (protein, UniProt P11387 2-765, looked up)
DNA topoisomerase 1: SGDHLHNDSQIEADFRLNDSHKHKDKHKDREHRHKEHKKEKDREKSKHSNSEHKDSEKKHKEKEKTKHKDGSSEKHKDKHKDRDKEKRKEEKVRASGDAKIKKEKENGFSSPPQIKDEPEDDGYFVPPKEDIKPLKRPRDEDDADYKPKKIKTEDTKKEKKRKLEEEEDGKLKKPKNKDKDKKVPEPDNKKKKPKKEEEQKWKWWEEERYPEGIKWKFLEHKGPVFAPPYEPLPENVKFYYDGKVMKLSPKAEEVATFFAKMLDHEYTTKEIFRKNFFKDWRKEMTNEEKNIITNLSKCDFTQMSQYFKAQTEARKQMSKEEKLKIKEENEKLLKEYGFCIMDNHKERIANFKIEPPGLFRGRGNHPKMGMLKRRIMPEDIIINCSKDAKVPSPPPGHKWKEVRHDNKVTWLVSWTENIQGSIKYIMLNPSSRIKGEKDWQKYETARRLKKCVDKIRNQYREDWKSKEMKVRQRAVALYFIDKLALRAGNEKEEGETADTVGCCSLRVEHINLHPELDGQEYVVEFDFLGKDSIRYYNKVPVEKRVFKNLQLFMENKQPEDDLFDRLNTGILNKHLQDLMEGLTAKVFRTYNASITLQQQLKELTAPDENIPAKILSYNRANRAVAILCNHQRAPPKTFEKSMMNLQTKIDAKKEQLADARRDLKSAKADAKVMKDAKTKKVVESKKKAVQRLEEQLMKLEVQATDREENKQIALGTSKLNYLDPRITVAWCKKWGVPIEKIYNKTQREKFAWAIDMADEDYEF
B8: DC1I2_HUMAN (protein, UniProt Q13409 2-638, looked up)
Cytoplasmic dynein 1 …: SDKSELKAELERKKQRLAQIREEKKRKEEERKKKETDQKKEAVAPVQEESDLEKKRREAEALLQSMGLTPESPIVFSEYWVPPPMSPSSKSVSTPSEAGSQDSGDGAVGSRTLHWDTDPSVLQLHSDSDLGRGPIKLGMAKITQVDFPPREIVTYTKETQTPVMAQPKEDEEEDDDVVAPKPPIEPEEEKTLKKDEENDSKAPPHELTEEEKQQILHSEEFLSFFDHSTRIVERALSEQINIFFDYSGRDLEDKEGEIQAGAKLSLNRQFFDERWSKHRVVSCLDWSSQYPELLVASYNNNEDAPHEPDGVALVWNMKYKKTTPEYVFHCQSAVMSATFAKFHPNLVVGGTYSGQIVLWDNRSNKRTPVQRTPLSAAAHTHPVYCVNVVGTQNAHNLISISTDGKICSWSLDMLSHPQDSMELVHKQSKAVAVTSMSFPVGDVNNFVVGSEEGSVYTACRHGSKAGISEMFEGHQGPITGIHCHAAVGAVDFSHLFVTSSFDWTVKLWTTKNNKPLYSFEDNADYVYDVMWSPTHPALFACVDGMGRLDLWNLNNDTEVPTASISVEGNPALNRVRWTHSGREIAVGDSEGQIVIYDVGEQIAVPRNDEWARFGRTLAEINANRADAEEEAATRIPA

test system: KDM4A-I71AzF; assay: CASI: photo-crosslinking with HEK293T cell extracts, StrepTactin enrichment and LC-MS/MS proteomics; type: binding, human; conditions: sheet "Final results but with 0.01";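 also: lysates from HEK293T cells pretreated with a KDM4 inhibitor to raise proteome methylation, affinity-purified after ±UV, gel-resolved, trypsin-digested, with exclusive unique peptides per protein averaged per condition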

In order of falling “Fold change (+UV/-UV)” value:
1. B4  1.5
2. B3  1.2
3. B6  1
4. B8  1
5. B1  0.7778
6. B2  0.4
7. B5  0
8. B7  0
